Measurements: US20100172900A1 (Bristol-Myers Squibb, published 2010)

Legend:
[1] = target: T1, recombinant human BTLA fusion protein (human, UniProt Q7Z6A9 31-156); experiment: Biacore, BTLA fusion protein coupled to CM5 chip, antibody flowed at 267 nM
T1 construct: also called BTLA-Ig; BTLA Ig antigen; not shown: Ig fusion partner
Description: Anti-BTLA antibodies were characterized for affinities and binding kinetics by Biacore analysis (Biacore AB, Uppsala, Sweden). Purified recombinant human BTLA fusion protein was covalently linked to a CM5 chip (carboxy methyl dextran coated chip) via primary amines, using standard amine coupling chemistry and kit provided by Biacore. Binding was measured by flowing the antibodies in HBS EP buffer (provided by Biacore AB) at a concentration of 267 nM at a flow rate of 50 μl/min. The antigen-antibody association kinetics was followed for 3 minutes and the dissociation kinetics was followed for 7 minutes. The association and dissociation curves were fit to a 1:1 Langmuir binding model using BIAevaluation software (Biacore AB). To minimize the effects of avidity in the estimation of the binding constants, only the initial segment of data corresponding to association and dissociation phases were used for fitting.

[2] = target: T1, recombinant human BTLA fusion protein; experiment: Biacore 3000, antibody captured by anti-CH1, BTLA fusion protein 200 nM in solution
Description: The binding of the 1B4, E4H9, 3C2, 6A5, 11E2 and 10116 antibodies to recombinant BTLA protein was examined by BIAcore™ using an antibody capture method. Each of the six anti-BTLA monoclonal antibodies were captured using anti-CH1, a reagent antibody that is specific towards the heavy chain constant region 1 of human antibody (Zymed, Clone HP6045, Stock conc. 1.0 mg/mL). Anti-CH1 was coated on a CM5 chip (BR-1000-14, Research Grade) at high density (6200-7960 RUs). The coating was carried out based on the standard immobilization procedure recommended by the manufacturer. The 1B4, E4H9, 3C2, 6A5, 11E2 and 10116 purified antibodies, with concentrations ranging from 1-10 μg/mL, were each then captured on the anti-CH1 coated chip surface at a flow-rate of 10 μl/min for 0.5-1 minute. A single concentration of recombinant human BTLA fusion protein (200 nM) was injected over captured antibody for 4 minutes at a flow rate of […]. The antigen was allowed to dissociate for 10 minutes. The chip surface was regenerated after each cycle with 10 μL of 30 mM NaOH, followed by 30 μl of HBS EP wash. Isotype controls were run on the chip, and the data used to subtract non-specific binding. All the experiments were carried out on a Biacore 3000 surface plasmon resonance instrument, using BIAcore Control software v 3.2. Data analysis was carried out using BiaEvaluation v3.2 software.

[3] = target: T2, recombinant human BTLA expressed at the cell surface of CHO cells (human, UniProt Q7Z6A9 31-289); experiment: flow cytometry on BTLA-transfected CHO cells, PE anti-human IgG detection, MFI against log nM IgG
T2 construct: also called BTLA-CHO cells; BTLA CHO cells
T2 sequence (Q7Z6A9 31-289 R157S limits assumed): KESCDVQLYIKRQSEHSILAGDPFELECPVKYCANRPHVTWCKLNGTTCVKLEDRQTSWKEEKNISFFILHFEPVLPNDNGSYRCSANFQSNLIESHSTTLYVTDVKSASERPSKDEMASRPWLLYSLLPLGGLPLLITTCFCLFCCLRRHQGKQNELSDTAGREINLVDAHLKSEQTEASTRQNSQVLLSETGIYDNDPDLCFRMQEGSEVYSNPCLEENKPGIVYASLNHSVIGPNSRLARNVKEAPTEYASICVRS
Description: Chinese hamster ovary (CHO) cell lines that express recombinant human BTLA at the cell surface were developed and used to determine the specificity of BTLA human monoclonal antibodies by flow cytometry. CHO cells were transfected with expression plasmids containing full length cDNA encoding transmembrane forms of BTLA. Binding of the anti-BTLA human monoclonal antibodies was assessed by incubating the transfected cells with the anti-BTLA human monoclonal antibodies at a concentration from 0.01 nM to 66 nM. The antibodies were incubated with 10⁵ BTLA CHO cells for 60 minutes at 4° C. in PBS1% BSA. […] The EC₅₀ was determined graphically by plotting the mean flourescence intensity (MFI) versus the log of the antibody concentration using Prism graphing software (GraphPad software). Flow cytometric analyses were performed using a FACSArray flow cytometry (Becton Dickinson, San Jose, Calif.). The results are depicted in FIG. 28A.

[4] = target: T3, TrkB-Ig (human, UniProt Q16620); experiment: ELISA, plate coated with receptor-Ig fusion, antibody at 1 ug/mL, HRP-conjugated detection antibody
T3 construct: extracellular domain
Description: (§1) ELISA plates were coated overnight with fusion proteins consisting of the extracellular domains of a panel of CD28 receptor family molecules fused to the Fc portion of human IgG (Table 4). The plates were washed and blocked to minimize non-specific binding. A panel of anti-BTLA antibodies and isotype control antibodies (Table 5), and positive control detection antibodies (Table 3), all diluted to 1 ug/mL, were added in duplicate to the assay plates for one hour. After extensive washing the appropriate HRP-conjugated detection antibodies were added to the plates for one hour followed by washing and development using 3, 3′, 5, 5′-tetramethylbenzidine (TMB) as substrate. Optical density measurements at 650 nm were recorded.

[5] = target: PD1-Ig; experiment: as above
PD1-Ig, sequence (chain, as listed by the source limits assumed): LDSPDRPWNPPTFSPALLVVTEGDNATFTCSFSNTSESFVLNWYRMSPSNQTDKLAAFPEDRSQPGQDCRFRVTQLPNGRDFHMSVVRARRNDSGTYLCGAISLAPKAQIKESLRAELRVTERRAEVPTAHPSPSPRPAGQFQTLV
Description: as §1

[6] = target: T4, CTLA4-Ig (human, UniProt P16410); experiment: as above
T4 construct: extracellular domain
T4 sequence (P16410 36-161): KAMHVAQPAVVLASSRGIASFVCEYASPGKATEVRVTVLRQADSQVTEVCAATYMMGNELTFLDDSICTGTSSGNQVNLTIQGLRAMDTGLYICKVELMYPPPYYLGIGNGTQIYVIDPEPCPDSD
Description: as §1

[7] = target: T5, ICOS-Ig (human, UniProt Q9Y6W8); experiment: as above
T5 construct: extracellular domain
T5 sequence (fusion chain, looked up): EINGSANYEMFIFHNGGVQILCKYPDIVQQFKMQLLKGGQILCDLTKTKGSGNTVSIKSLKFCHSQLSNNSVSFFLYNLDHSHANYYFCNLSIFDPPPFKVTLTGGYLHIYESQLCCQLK
Description: as §1

[8] = target: T6, CD28-Ig (human, UniProt P10747); experiment: as above
T6 construct: extracellular domain
Description: as §1

[9] = target: T2, recombinant human BTLA expressed at the …; experiment: FACS blocking assay: antibody pre-incubated with BTLA-CHO cells, then 0.5 ug/ml biotin HVEM Ig, streptavidin-PE detection
Description: The ability of BTLA Mabs to block binding of BTLA to HVEM was also determined by FACS, and is expressed as the concentration of anti-BTLA IgG to block half the maximal binding of HVEM Ig to 10⁵ BTLA CHO cells (IC₅₀). BTLA CHO cells and antibody at various concentrations were pre-incubated for 30 minutes at 4° C., and then 0.5 ug/ml biotin labeled HVEM Ig (R & D Systems BAF 356) was added to the BTLA CHO-IgG mix and incubated for another 30 minutes. Cells were washed 2× in PBS-1% BSA, and binding of biotin HVEM Ig was detected by FACS after staining the cells with streptavidin-PE (BD Parmingen 3554061). IC₅₀ values were determined graphically using the Prism software (GraphPad Software). Results are depicted in FIG. 28B and FIG. 28C.

T1 sequence (Q7Z6A9 other isoform, or with tags, fused parts or gaps): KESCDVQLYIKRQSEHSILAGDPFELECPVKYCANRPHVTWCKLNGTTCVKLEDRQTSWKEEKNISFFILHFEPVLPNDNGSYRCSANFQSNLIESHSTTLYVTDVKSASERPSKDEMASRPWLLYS

B1: 3C2 human monoclonal antibody (antibody, IgG1, V domains shown)
VH: QVQLQESGPGLVKPSETLSLTCTISGGSISNYYWNWIRQPPGKGLEWIGYIYYSTSTKYNPSLKSRVTMSVETSKNQFSLKLSSVTAADTAVYYCARVKVYSTGWFFDYWGQGTLVTVSS
VL: AIQLTQSPSSLSASVGDRVTITCRASQGISSALAWYQQKPGKAPKLLIYDASSLESGVPSRFSGSGSGTDFTLTISSLQPEDFATYYCQQFNSYPLTFGGGTKVEIK
Question: Which results are given for B1?
Answer: Kd [1]: 0.88 nM; Kd [2]: 6.65 nM; koff [2]: 0.000301 s⁻¹; kon [2]: 45200 M⁻¹ s⁻¹; EC50 [3]: 1.78 nM; binding result [4]: no binding (tested: 1 ug/mL); binding result [5]: no binding (tested: 1 ug/mL); binding result [6]: no binding (tested: 1 ug/mL); binding result [7]: no binding (tested: 1 ug/mL); binding result [8]: no binding (tested: 1 ug/mL); IC50 [9]: 1.97 nM

B2: 11E2 human monoclonal antibody (antibody, IgG1, V domains shown)
VH: EVQLVESGGGVIRPGGSLRLSCAASGFTFDDYGMSWVRQAPGKGLEWVSGINWNGGSTGYAASVKGRFTISRDNAKNSLYLQMNSLRAEDSALYYCARDYYYGPGSPNYFYYAMDVWGQGTTVTVSS
VL: DIQMTQSPSSLSASVGDRVTITCRASQGISSWLAWYQQKPEKAPKSLIYAASSLQSGVPSRFSGSGSGTDFTLTISSLQPEDFATYYCQQYNSYPRTFGQGTKVEIK
notes: kappa light chain (VK L15)
Question: Which results are given for B2?
Answer: Kd [1]: 0.61 nM; EC50 [3]: 3.25 nM; binding result [4]: no binding (tested: 1 ug/mL); binding result [5]: no binding (tested: 1 ug/mL); binding result [6]: no binding (tested: 1 ug/mL); binding result [7]: no binding (tested: 1 ug/mL); binding result [8]: no binding (tested: 1 ug/mL); IC50 [9]: 2.73 nM

B3: 10H6 human monoclonal antibody (antibody, V domains shown)
VH: QVQLVESGGGVVQPGRSLRLSCAASGFTFSSYDMHWVRQAPGKGLEWVAAIWNDGSNKYYADSVKGRFTISRDNSKNTLYLQMNSLRAEDTAVYYCARDRITMVRGVITQYYGMDVWGQGTTVTVSS
VL: DIQLTQSPSSLSASVGDRVTITCRVSQGISSYLNWYRQKPGKVPKLLIYSASNLQSGVPSRFSGSGSGTDFTLTISSLQPEDVATYYGQRTYNAPYTFGQGTKLEIK
Question: Which results are given for B3?
Answer: Kd [2]: 3.82 nM; koff [2]: 0.000153 s⁻¹; kon [2]: 40000 M⁻¹ s⁻¹; EC50 [3]: 1.89 nM; IC50 [9]: 2.13 nM

B4: E4H9 human monoclonal antibody (antibody, V domains shown)
VH: QVTLRESGPALVKPTQTLTLTCTFSGFSLSTSGMCVSWIRQPPGKALEWLALIDWDDVKYYSSSLKTRLTISKDTSKNQVVLTMTDMDPVDTATYYCARIRFTMFRGVYYYYYGLDVWGQGTTVTVSS
VL: not shown
notes: kappa light chain (VK A27)
Question: With B4 as the binder, how does the Kd [1] read?
Answer: Its Kd is 0.13 nM.

Question: What about the Kd [2] of the same binder?
Answer: The Kd was 0.006 nM.

Question: And the koff [2]?
Answer: The koff was 3e-07 s⁻¹.

Question: And the kon [2]?
Answer: Its kon is 45700 M⁻¹ s⁻¹.

Question: What about the EC50 [3] of the same binder?
Answer: The EC50 was 1.55 nM.

Question: Does B4 bind [4]?
Answer: Result: no binding (tested: 1 ug/mL)

Question: Does B4 bind [5]?
Answer: Result: no binding (tested: 1 ug/mL)

Question: Does B4 bind [6]?
Answer: Result: no binding (tested: 1 ug/mL)

Question: What about the IC50 [9] of the same binder?
Answer: The IC50 was 1.05 nM.

B5: 1B4 human monoclonal antibody (antibody, IgG1, V domains shown)
VH: QITLKESGPTLVKPTQTLTLTCTFSGFSLNTIGVGVNWIRQPPGKALEWLALIYWDDDKRYSPSLKRRLTISKDTSKNQVVLTMTNMDPVDTATYYCAHSGITEVRGVIIHYYGMDVWGQGTTVTVSS
VL: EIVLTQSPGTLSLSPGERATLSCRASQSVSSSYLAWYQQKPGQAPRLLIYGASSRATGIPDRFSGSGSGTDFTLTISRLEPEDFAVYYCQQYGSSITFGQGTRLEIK
notes: human antibody purified from hybridoma, kappa light chain (VK A27)
Question: Which results are given for B5?
Answer: Kd [1]: 2.88 nM; Kd [2]: 5.74 nM; koff [2]: 0.000284 s⁻¹; kon [2]: 49400 M⁻¹ s⁻¹; EC50 [3]: 1.34 nM; binding result [4]: no binding (tested: 1 ug/mL); binding result [5]: no binding (tested: 1 ug/mL); binding result [6]: no binding (tested: 1 ug/mL); IC50 [9]: 1.9 nM

B6: 6A5 human monoclonal antibody (antibody, V domains shown)
VH: QITLKESGPTLVKPTQTLTLTCTFSGFSLSTSGVGVGWIRQPPGKALEWLALIYWDDDKRYSPSLKSRLTITKDTSKNQVVLTMANMDPVDTATYYCAHIRITEVRGVIISYYGMDVWGQGTTVTVSS
VL: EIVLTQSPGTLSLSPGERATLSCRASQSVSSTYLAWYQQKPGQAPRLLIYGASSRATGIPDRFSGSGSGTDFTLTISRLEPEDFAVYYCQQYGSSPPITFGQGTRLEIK
notes: kappa light chain (VK A27)
Question: Does B6 bind [4]?
Answer: Result: no binding (tested: 1 ug/mL)

Question: Does B6 bind [5]?
Answer: Result: no binding (tested: 1 ug/mL)

Question: Does B6 bind [6]?
Answer: Result: no binding (tested: 1 ug/mL)

B7: 11-E8D9 (antibody, V domains shown)
VH: QITLKESGPTLVKPTQTLTLTCTFSGFSLSTSGVGVGWIRQPPGKALEWLALIYWDDDKRYSPSLKSRLTITKDTSKNQVVLTMTNMDPVDTATYYCAHTSITEVRGAIIYYYGMDVWGQGTTVTVSS
VL: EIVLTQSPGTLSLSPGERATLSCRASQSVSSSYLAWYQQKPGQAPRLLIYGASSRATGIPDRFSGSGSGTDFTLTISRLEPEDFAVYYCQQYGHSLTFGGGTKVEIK
notes: also called 11E8D9.3; E8D9 human monoclonal antibody
Question: What does the source list for B7?
Answer: EC50 [3]: 0.373 nM; binding result [4]: no binding (tested: 1 ug/mL); binding result [5]: no binding (tested: 1 ug/mL); binding result [6]: no binding (tested: 1 ug/mL); IC50 [9]: 0.34 nM

B8: 11-4C9 (antibody, V domains shown)
VH: QITLKESGPTLVKPTQTLTLTCTFSGFSLSTSGVGVAWIRQPPGKALEWLALIYWDDDKRYSPSLKSRLTITKDTSKNQVVLTMSNMDPVDTATYYCAHTRIAEVRGVIYYYYGIDVWGQGTTVTVSS
VL: EIVLTQSPGTLSLSPGERATLSCRASQSVSSTYLVWYQQKPGQAPRLLIYGASSRATGIPDRFSGSGSGTDFTLTISRLEPEDFAVYYCQQYGSSWTFGQGTKVEIK
notes: The prefix 11- appears only on the sheets; also called 4C9 human monoclonal antibody
Question: B8 was tested. Which EC50 [3] did it give?
Answer: The EC50 was 1.56 nM.

Question: What about the IC50 [9] of the same binder?
Answer: Its IC50 is 1.02 nM.
